# The supplement of paper PMC10567573
# B1: FAM50A (parent)
# chain: KKREKQREQMEQMKQRIAEENIMK
# B2: MGC16075 (parent)
# chain: AGSRQALSFEVPPCNYDPEKWIQ
# Variants of: B1
# Assay: protein stability index of a GFP-peptide fusion (GPS, HEK-293T) (PSI 1-6); higher = more stable
# Conditions: c terminus: a fixed tail appended
# 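Also: lentivirally expressed fusions sorted by FACS into six bins by GFP to DsRed ratio, PSI derived from sequencing read proportions per bin multiplied by bin number.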
row,Variant,protein stability index
1,N21C,4.63
2,N21D,5.11
3,N21E,5.12
4,N21F,4.31
5,N21G,4.75
6,N21H,4.46
7,N21I,4.17
8,N21K,5.35
9,N21L,3.99
10,N21M,4.64
11,N21P,4.85
12,N21Q,5.48
13,N21R,4.35
14,N21S,4.75
15,N21T,4.77
16,N21V,4.03
17,N21W,3.91
18,N21Y,4.41
19,I22A,4.48
20,I22C,5.22
21,I22D,5.54
22,I22E,5.68
23,I22F,3.93
24,I22G,5.2
25,I22H,4.8

row,Variant,protein stability index
1,I22K,4.16
2,I22L,4.91
3,I22M,5.07
4,I22N,5.12
5,I22P,5.12
6,I22Q,4.75
7,I22R,4.92
8,I22S,5.33
9,I22T,5.46
10,I22V,4.85
11,I22W,4.63
12,I22Y,4.18
13,M23A,4.63
14,M23C,4.83
15,M23D,5.14
16,M23E,5.25
17,M23F,4.32
18,M23G,5
19,M23H,4.89
20,M23I,4.04
21,M23K,4.99
22,M23L,4.49
23,M23N,4.66
24,M23P,5.46
25,M23Q,5.45

row,Variant,protein stability index
1,M23R,3.3
2,M23S,5.28
3,M23T,4.93
4,M23V,5.27
5,M23W,4.02
6,M23Y,4.75
7,K24A,4.33
8,K24C,5.14
9,K24D,5.12
10,K24E,4.85
11,K24F,4.39
12,K24G,4.99
13,K24H,4.97
14,K24I,4.35
15,K24L,4.13
16,K24M,5.03
17,K24N,4.77
18,K24P,4.46
19,K24Q,4.86
20,K24R,4.16
21,K24S,4.88
22,K24T,4.95
23,K24V,4.82
24,K24W,3.77
25,K24Y,4.24

# Variants of: B2
# Assay: as above
# Conditions: c terminus: native
row,Variant,protein stability index
1,C14V,1.95
2,P12L,4.23
3,A6C,2.03
4,E10G,1.83
5,A6Q,1.99
6,C14E,2.21
7,G2T,1.95
8,R4V,2.61
9,Q5T,2.12
10,D17K,3.23
11,Y16W,1.47
12,E19D,2.54
13,E19C,1.76
14,F9N,3.75
15,F9K,3.19
16,I22S,5.03
17,A6E,1.92
18,N15I,2.06
19,K20V,1.96
20,A1K,2.18
21,N15Q,3.17
22,A6T,1.53
23,Y16Q,2.54

row,Variant,protein stability index
1,R4C,1.57
2,E10I,2.29
3,P12D,1.97
4,E10A,3.25
5,R4Q,1.87
6,S3F,4.6
7,A6D,2.91
8,A6R,2.29
9,K20Y,3.78
10,D17M,1.9
11,S3N,1.59
12,G2P,1.94
13,S3V,1.27
14,V11T,1.89
15,P12V,2.72
16,L7G,2.06
17,S3G,2.88
18,V11P,1.75
19,P18C,2.3
20,Y16T,2.53
21,P13C,3
22,S3I,1.99
23,D17V,2

row,Variant,protein stability index
1,Q5V,2.35
2,G2K,2
3,N15D,1.78
4,K20C,2.26
5,S8E,3.24
6,L7T,2.42
7,A6F,2.46
8,A1C,1.19
9,E19T,1.97
10,Y16R,1.24
11,N15Y,2.7
12,R4N,1.98
13,P13V,2.19
14,L7E,3.23
15,P18N,2.15
16,L7M,1.86
17,Y16N,2.2
18,D17G,2.29
19,L7H,2.33
20,A1S,1.46
21,A1D,2.9
22,Q5F,3.99
23,S8Y,3.25

row,Variant,protein stability index
1,E19V,1.86
2,A6N,2.16
3,D17A,2.18
4,P12N,1.67
5,A1Q,2.17
6,C14F,1.5
7,D17R,2.15
8,C14D,2
9,S3T,1.79
10,Q23D,1.34
11,E19F,2.33
12,S8L,1.98
13,A1Y,2.8
14,Y16L,2.04
15,R4T,2.14
16,F9D,3.05
17,W21M,3.23
18,E19R,2.14
19,S3R,1.57
20,E19S,2.2
21,N15E,1.58
22,S3A,1.67
23,P13F,2.1
